According to patent US20210221894A1 (DRAGONFLY THERAPEUTICS, published 2021):

Legend:
recombinant human DLL1 = biological target: T1, recombinant human DLL1 (human, UniProt O00548 18-540, limits assumed); assay: ELISA, plate-bound recombinant human DLL1 (1 µg/mL), anti-mouse IgG-HRP/TMB, % of positive control max
T1 sequence (looked up): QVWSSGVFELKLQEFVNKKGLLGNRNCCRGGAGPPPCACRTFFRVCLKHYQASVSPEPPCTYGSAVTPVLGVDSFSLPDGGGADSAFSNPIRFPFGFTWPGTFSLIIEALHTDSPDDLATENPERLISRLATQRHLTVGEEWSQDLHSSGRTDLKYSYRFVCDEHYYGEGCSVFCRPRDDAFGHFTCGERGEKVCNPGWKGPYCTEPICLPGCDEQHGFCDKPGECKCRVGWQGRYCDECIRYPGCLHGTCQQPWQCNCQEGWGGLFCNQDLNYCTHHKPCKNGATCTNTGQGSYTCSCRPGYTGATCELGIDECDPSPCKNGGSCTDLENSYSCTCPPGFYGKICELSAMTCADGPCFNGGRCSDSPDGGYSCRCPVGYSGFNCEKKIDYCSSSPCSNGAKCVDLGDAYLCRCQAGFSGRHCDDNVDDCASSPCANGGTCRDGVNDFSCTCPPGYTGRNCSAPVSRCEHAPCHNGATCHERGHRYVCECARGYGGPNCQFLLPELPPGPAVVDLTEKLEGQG
Experimental: (§1) To investigate the binding of anti-DLL3 antibodies to human DLL3, wells of high binding flat-bottom plates were coated with recombinant human DLL3 diluted to 0.5 μg/ml. To assess cross-reactivity of the antibodies to DLL1/DLL4, which are closely related family members to DLL3, plates were coated with recombinant human DLL1 diluted to 1 μg/ml, or human DLL4 diluted to 0.5 μg/ml. […] Binding was detected using anti-mouse IgG-HRP and 3,3′,5,5′-Tetramethylbenzidine (TMB) substrate. Signals were normalized to the corresponding positive control antibody.

[1] = biological target: T2, recombinant human DLL3 (ELISA coat) (human, UniProt Q9NYJ7 27-492); assay: ELISA, plate coated with recombinant human DLL3 0.5 µg/ml, anti-mouse IgG-HRP
T2 sequence: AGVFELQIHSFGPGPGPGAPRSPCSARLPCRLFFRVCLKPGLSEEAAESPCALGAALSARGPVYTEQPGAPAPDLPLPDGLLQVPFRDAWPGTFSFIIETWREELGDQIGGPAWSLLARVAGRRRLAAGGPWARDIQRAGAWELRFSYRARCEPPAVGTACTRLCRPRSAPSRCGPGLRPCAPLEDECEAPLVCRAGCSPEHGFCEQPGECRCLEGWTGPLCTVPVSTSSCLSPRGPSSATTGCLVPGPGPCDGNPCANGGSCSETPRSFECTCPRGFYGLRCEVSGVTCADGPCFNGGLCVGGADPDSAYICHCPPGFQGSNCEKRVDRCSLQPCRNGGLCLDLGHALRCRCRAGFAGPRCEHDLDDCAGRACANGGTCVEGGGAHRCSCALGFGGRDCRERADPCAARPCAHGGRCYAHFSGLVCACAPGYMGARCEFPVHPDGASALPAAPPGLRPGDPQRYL
Experimental: as §1
Table 38 lists the calculated EC₅₀ based on the binding data from FIG. 24.

[2] = biological target: T3, recombinant human NKG2D-Fc fusion protein (human, UniProt P26718 73-216); assay: ELISA, plate-bound recombinant human NKG2D-Fc, anti-human kappa-HRP/TMB
T3 construct: extracellular domain; also called NKG2D-Fc-biotin; not shown: human IgG1 Fc domain
T3 sequence (looked up): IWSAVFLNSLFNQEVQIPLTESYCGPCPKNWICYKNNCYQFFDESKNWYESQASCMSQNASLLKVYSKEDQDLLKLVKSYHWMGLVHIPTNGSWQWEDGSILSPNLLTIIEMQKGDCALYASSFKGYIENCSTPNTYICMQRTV
Description: (§2) The nucleic acid sequences of human, mouse or cynomolgus NKG2D ectodomains were fused with nucleic acid sequences encoding human IgG1 Fc domains and introduced into mammalian cells to be expressed. After purification, NKG2D-Fc fusion proteins were adsorbed to wells of microplates. After blocking the wells with bovine serum albumin to prevent non-specific binding, NKG2D-binding domains were titrated and added to the wells pre-adsorbed with NKG2D-Fc fusion proteins. Primary antibody binding was detected using a secondary antibody which was conjugated to horseradish peroxidase and specifically recognizes a human kappa light chain to avoid Fc cross-reactivity. 3,3′,5,5′-Tetramethylbenzidine (TMB), a substrate for horseradish peroxidase, was added to the wells to visualize the binding signal, whose absorbance was measured at 450 nm and corrected at […]. An NKG2D-binding domain clone, an isotype control or a positive control (comprising heavy chain and light chain variable domains selected from SEQ ID NOs:101-104, or anti-mouse NKG2D clones MI-6 and CX-5, eBioscience, San Diego, Calif.) was added to each well.

[3] = biological target: T4, recombinant cynomolgus NKG2D-Fc fusion protein (cynomolgus; human, UniProt P61252 73-216); assay: ELISA, plate-bound recombinant cynomolgus NKG2D-Fc, anti-human kappa-HRP/TMB
T4 construct: extracellular domain; not shown: human IgG1 Fc domain
T4 sequence (looked up): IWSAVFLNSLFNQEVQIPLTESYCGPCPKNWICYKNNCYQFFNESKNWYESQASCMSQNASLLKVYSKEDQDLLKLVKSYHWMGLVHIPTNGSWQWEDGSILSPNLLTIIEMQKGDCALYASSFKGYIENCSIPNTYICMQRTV
Description: as §2

[4] = biological target: T5, recombinant mouse NKG2D-Fc fusion protein (mouse; human, UniProt O54709 90-232); assay: ELISA, plate-bound recombinant mouse NKG2D-Fc, anti-human kappa-HRP/TMB
T5 construct: extracellular domain; also called Mouse NKG2D-Fc-biotin; not shown: human IgG1 Fc domain
T5 sequence (looked up): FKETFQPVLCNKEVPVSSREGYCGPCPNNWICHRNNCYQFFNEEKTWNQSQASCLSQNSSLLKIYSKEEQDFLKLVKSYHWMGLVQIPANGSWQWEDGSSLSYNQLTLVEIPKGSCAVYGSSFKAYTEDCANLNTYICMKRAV
Description: as §2

human DLL3-His = biological target: T6, human DLL3-His (human, UniProt Q9NYJ7 27-492); assay: SPR (Biacore 8K), 37 C, antibody captured on anti-human Fc, DLL3-His 0.411-300 nM injected, 1:1 fit
T6 construct: also called hDLL3
T6 sequence: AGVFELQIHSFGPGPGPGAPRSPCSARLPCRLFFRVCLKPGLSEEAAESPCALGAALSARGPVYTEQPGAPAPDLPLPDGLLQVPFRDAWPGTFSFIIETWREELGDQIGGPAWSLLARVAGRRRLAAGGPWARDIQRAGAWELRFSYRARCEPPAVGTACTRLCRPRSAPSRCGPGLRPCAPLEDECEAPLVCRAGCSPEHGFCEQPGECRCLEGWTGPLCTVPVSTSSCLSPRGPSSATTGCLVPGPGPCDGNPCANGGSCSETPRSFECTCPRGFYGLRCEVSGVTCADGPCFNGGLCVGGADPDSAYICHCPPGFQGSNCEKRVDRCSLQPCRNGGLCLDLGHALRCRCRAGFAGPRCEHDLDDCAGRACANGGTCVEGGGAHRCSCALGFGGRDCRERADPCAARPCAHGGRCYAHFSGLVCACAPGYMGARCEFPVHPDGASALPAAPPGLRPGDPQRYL
Description: The kinetics of binding of different humanized variants and parental murine 5E7 antibody to human DLL3-His was studied by Surface Plasmon Resonance using a Biacore 8K instrument. Briefly, anti-hFc and anti-mFc IgG proteins were covalently immobilized onto different channels of CMS chip to allow simultaneous analysis of human and murine antibodies. m5E7 was captured on the anti-mouse Fc channel and humanized variants were captured on the anti-human Fc channel at a desired capture level of […] in HBS-EP+ buffer supplemented with 0.1% BSA. Three buffer blanks and human DLL3-His (analyte) at concentrations 0.411-300 nM (in three fold dilutions) were injected over the surface with captured murine or humanized 5E7 for 300 second association time and let dissociate for 600 second at a flow rate of 30 μL/min. The surfaces were subjected to regeneration with three 20-second pulses of 10 mM glycine pH 1.70 at a flow rate of 100 μL/min between every concentration of analyte. The experiment was conducted at 37° C. Data were double referenced and a 1:1 fit model was applied to the sensorgrams in the Biacore Insight Evaluation software.
The kinetic parameters of human DLL3-His binding to murine and humanized variants of 5E7 antibody variants were calculated and shown in Table 39.

B1: anti-DLL3 antibody clone 10F5 (antibody, V domains shown)
VH: QLQLVQSGPELMRPGETVKISCKASGYTFTTYGMNWVKQAPGKGLKWVGWINTYSGVPTYADDFKGRFAFSLESSASTAFLQINNLKDEDTATYFCARFGNYGFDCWGQGTTLTVSS
VL: DIVMTQSPSSLSVSAGEKVTMSCKSSQSLLNSGNQKNYLAWYQQKPGQPPKLLIYGASTRESGVPDRFTGSGSGTDFTLTISSVQAEDLAVYYCQNDHIYPYTFGGGTKLEIK
notes: Murine antibody from a mouse hybridoma
binding result (recombinant human DLL1): no binding
EC50 [1]: 0.64 nM

B2: ADI-27705 (antibody, V domains shown)
VH: QVQLQQWGAGLLKPSETLSLTCAVYGGSFSGYYWSWIRQPPGKGLEWIGEIDHSGSTNYNPSLKSRVTISVDTSKNQFSLKLSSVTAADTAVYYCARARGPWSFDPWGQGTLVTVSS
VL: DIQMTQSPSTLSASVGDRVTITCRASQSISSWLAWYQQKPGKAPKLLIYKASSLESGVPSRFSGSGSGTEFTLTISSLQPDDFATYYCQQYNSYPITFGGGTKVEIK
EC50 (read off the curve) [2]: ~0.6 nM
binding result [3]: binds
binding result [4]: binds

B3: ADI-27724 (antibody, V domains shown)
VH: QVQLQQWGAGLLKPSETLSLTCAVYGGSFSGYYWSWIRQPPGKGLEWIGEIDHSGSTNYNPSLKSRVTISVDTSKNQFSLKLSSVTAADTAVYYCARARGPWSFDPWGQGTLVTVSS
VL: not shown
EC50 (read off the curve) [2]: ~10 nM
EC50 (read off the curve) [3]: ~10 nM
EC50 (read off the curve) [4]: ~8 nM

B4: ADI-27741 (antibody, V domains shown)
VH: QVQLQQWGAGLLKPSETLSLTCAVYGGSFSGYYWSWIRQPPGKGLEWIGEIDHSGSTNYNPSLKSRVTISVDTSKNQFSLKLSSVTAADTAVYYCARARGPWSFDPWGQGTLVTVSS
VL: DIQMTQSPSTLSASVGDRVTITCRASQSIGSWLAWYQQKPGKAPKLLIYKASSLESGVPSRFSGSGSGTEFTLTISSLQPDDFATYYCQQSNSYYTFGGGTKVEIK
binding result [2]: binds
binding result [3]: binds
binding result [4]: binds

B5: ADI-28226 (antibody, V domains shown)
VH: QVQLQQWGAGLLKPSETLSLTCAVYGGSFSGYYWSWIRQPPGKGLEWIGEIDHSGSTNYNPSLKSRVTISVDTSKNQFSLKLSSVTAADTAVYYCARARGPWSFDPWGQGTLVTVSS
VL: DIQMTQSPSTLSASVGDRVTITCRASQSISSWLAWYQQKPGKAPKLLIYKASSLESGVPSRFSGSGSGTEFTLTISSLQPDDFATYYCQQYGSFPITFGGGTKVEIK
notes: also called C26
binding result [2]: binds
EC50 (read off the curve) [3]: ~1 nM
binding result [4]: binds

B6: humanized anti-DLL3 antibody h5E7-YD-A6 (antibody, V domains shown)
VH: QVQLVQSGAEVKKPGASVKVSCKASGFNIKDDYIHWVRQAPGQGLEWMGWIDSENGDTEYASKFQGRVTITADTSANTAYMELSSLRSEDTAVYYCATSSYWSYDLFVYWGQGTLVTVSS
VL: DVQMTQSPSSLSASVGDRVTITCKSSQSLLHSNGKTYLNWLQQKPGQAPKLLLYLVSKLESGVPSRFSGSGSGTDYTLTISSLQPEDFATYYCLQTTHLYTFGQGTKLEIK
notes: Expressed as IgG1 mAb: human IgG1 CH1-CH2-CH3 and human constant kappa; also called A6 variant
Kd (human DLL3-His): 1.1 nM
koff (human DLL3-His): 0.000434 s⁻¹
kon (human DLL3-His): 396000 M⁻¹ s⁻¹

B7: humanized anti-DLL3 antibody h5E7-YD-C6 (antibody, V domains shown)
VH: QVQLVQSGAEVKKPGASVKVSCKASGFNIKDDYIHWVRQAPGQGLEWMGWIDSENGDTEYASKFQGRVTITADTSANTAYMELSSLRSEDTAVYYCATSEYYSYDLFVYWGQGTLVTVSS
VL: DVQMTQSPSSLSASVGDRVTITCKSSQSLLHSNGKTYLNWLQQKPGQAPKLLLYLVSKLESGVPSRFSGSGSGTDYTLTISSLQPEDFATYYCLQTTHLYTFGQGTKLEIK
notes: Expressed as IgG1 mAb: human IgG1 CH1-CH2-CH3 and human constant kappa; also called C6 variant
Kd (human DLL3-His): 3.35 nM
koff (human DLL3-His): 0.00137 s⁻¹
kon (human DLL3-His): 409000 M⁻¹ s⁻¹

B8: humanized anti-DLL3 antibody h5E7-YD-B5 (antibody, V domains shown)
VH: QVQLVQSGAEVKKPGASVKVSCKASGFNIKDDYIHWVRQAPGQGLEWMGWIDSENGDTEYASKFQGRVTITADTSANTAYMELSSLRSEDTAVYYCATSTYWSYDLFVYWGQGTLVTVSS
VL: DVQMTQSPSSLSASVGDRVTITCKSSQSLLHSNGKTYLNWLQQKPGQAPKLLLYLVSKLESGVPSRFSGSGSGTDYTLTISSLQPEDFATYYCLQTTHLYTFGQGTKLEIK
notes: Expressed as IgG1 mAb: human IgG1 CH1-CH2-CH3 and human constant kappa; also called B5 variant
Kd (human DLL3-His): 0.27 nM
koff (human DLL3-His): 0.00013 s⁻¹
kon (human DLL3-His): 474000 M⁻¹ s⁻¹

B9: humanized anti-DLL3 antibody h5E7-YD-F3 (antibody, V domains shown)
VH: QVQLVQSGAEVKKPGASVKVSCKASGFNIKDDYIHWVRQAPGQGLEWMGWIDSENGDTEYASKFQGRVTITADTSANTAYMELSSLRSEDTAVYYCATSSYWSYDLLVYWGQGTLVTVSS
VL: DVQMTQSPSSLSASVGDRVTITCKSSQSLLHSNGKTYLNWLQQKPGQAPKLLLYLVSKLESGVPSRFSGSGSGTDYTLTISSLQPEDFATYYCLQTTHLYTFGQGTKLEIK
notes: Expressed as IgG1 mAb: human IgG1 CH1-CH2-CH3 and human constant kappa; also called F3 variant
Kd (human DLL3-His): 1.29 nM
koff (human DLL3-His): 0.000405 s⁻¹
kon (human DLL3-His): 312000 M⁻¹ s⁻¹
